From US20250152663A1, “COMPOSITION FOR PREVENTION OR TREATMENT OF DRY EYE DISEASE COMPRISING HAPLN1” (HAPLNSCIENCE INC., priority 2021, published 2025) come the findings set out here.

The subject of one test is rabbit dry eye model. The test is described as follows: Corneal fluorescein score, 0.1% benzalkonium chloride-induced dry eye disease model. The class given is in vivo, New Zealand white rabbits. How it is done: Corneal fluorescein score assay and tear volume assay were respectively performed on eyeballs of rabbits treated with the compositions of Preparation Examples 1, 2, and 3 prepared in Example 7 above by using a 0.1% benzalkonium chloride (BAC)-induced dry eye disease (DED) model.
One drop (0.05 ml) of 0.1% benzalkonium chloride (BAC) was administered to both eyes of rabbits twice a day (9:00 and 17:00) for 14 days, and then induction of dry eye was identified by examination of eyes, and the rabbits were classified into groups.
The test substance was dropped into the groups of the rabbit model twice a day (8:30 and 16:30) (Day 15 to 30 (total of 16 days)).
Anesthesia was induced by intramuscular injection of Xylazine and Ketamine, and then one drop of Alcaine Eye Drop was administered and tear and the eye drop remaining therein were removed by using Weck-cel cellulose spear. After putting STT paper on the lower eyelid, a length of a wet region for 5 minutes was measured (STT-2). In addition, stability of the tear film was tested by measuring tear film break up time (TFBUT, measurement of time taken for the tear film to break down). Furthermore, conditions of the cornea and fluorescent staining were identified by a slit test.

In a further test the test system is IL-1β in lacrimal glands. The test is described as follows: IL-1β immunohistochemistry in lacrimal gland, mouse dry eye model. The class given is in vivo, C57BL/6. As to conditions: 5 μg/ml or more of HAPLN1, after 16 days of drug treatment. As for the experimental part:
In this example, expression of IL-1B in lacrimal glands was identified by immunohistochemistry in order to identify an in vivo anti-inflammatory effect of the HAPLN1 protein-containing composition of the present disclosure. To this end, on the 2nd day after 16 days of drug treatment, eyes were enucleated and paraffin blocked. IHC was performed by using a prepared slide, and expression (brown) of IL-1β was identified by using an Anti-IL1β antibody (FIG. 11A). FIG. 11B is a graph illustrating quantified expression levels of IL-1β obtained in FIG. 11A.

Test [1] has as its system MUC16 mRNA in human corneal epithelial cells. Description: RT-qPCR of mucin mRNA (MUC16) under high osmotic pressure. The class given is cell-based. The following applies: HCEC, 450 mOsM, 20 to 200 ng/ml, particularly 50 to 200 ng/ml, 24 hours; compared to the untreated group. How it is done:
First, the human corneal epithelial cells (HCECs, 5th passage) were seeded onto 6 wells at a density of […]. After 24 hours, the HCECs were pre-treated with a medium with different osmotic pressures (314 and 450 mOsM). After 48 hours of incubation, the cells were treated with the composition of the present disclosure having different concentrations of rhHAPLN1 (0, 5, 10, 20, 50, 100, and 200 ng/ml) and Cyclosporine A (0.1 μM), as a control drug, for 24 hours. Then, the cells were washed and sampled to perform RT-qPCR (FIG. 5A).
Total mRNA was purified from the HCECs by using a Qiagen kit. A cDNA was synthesized by using the iScript cDNA synthesis kit. Subsequently, RT-qPCR was performed and result data was expressed as relative expression levels (fold) (FIGS. 5B to 5C).

For test [2], the system named is goblet cells present in the conjunctiva. Description: Goblet cells in conjunctiva (PAS staining), mouse dry eye model. In kind it is in vivo, C57BL/6. The following applies: 16th day. An excerpt: On the 16th days from drug treatment, eyes were enucleated and paraffin blocked, and tissue was stained by PAS staining on a prepared slide (FIG. 10A). PAS staining specifically stains goblet cells. Because there are many mucopolysaccharides and mucoproteins in the goblet cells, […] thereof is oxidized by a periodic acid to form an aldehyde, which reacts with a Schiff reagent to be stained in red-purple.
In this regard, the number of goblet cells present in the conjunctiva was measured and quantified (FIG. 10B). As a result, in the dry eye disease model, the number of damaged goblet cells decreased.

Test [3] deals with CCL-20 secreted by human corneal epithelial cells. Description: CCL-20 ELISA under high osmotic pressure. The class given is cell-based. The following applies: HCEC, 450 mOsM, 5, 10, 20, 50, and 100 ng/ml. As for the experimental part:
(§1) In addition, the activity of NFκB that is an important transcription factor in expression of the inflammatory factors was identified by Western blot analysis (FIG. 4B). Preparation of the experiment was performed under the same conditions of those of Cytokine array performed as described above and the ELISA was performed according to the manufacturer's instructions.

In test [4] the test system is human corneal epithelial cells. The test is described as follows: CCK-8 cell viability under high osmotic pressure (dry eye cell model). In kind it is cell-based. The following applies: HCEC, 450 mOsM. How it is done:
In most dry eye diseases, tear decreases in the aqueous layer in an eyeball due to lacrimal hyposecretion or hyperevaporation of tear. In this case, osmotic pressure increases because water decreases while concentrations of proteins, lipids, carbohydrates, etc. contained in tear are constantly maintained. Based on this principle, in cellular level studies, NaCl is added to a cell culture medium to control the osmotic pressure, establish a dry eye disease model, and evaluate efficacy of a drug. Thus, in the present embodiment, by using a case with an osmotic pressure of 314 mOsM as a normal control and a case with a relatively high osmotic pressure of 450 mOsM as a dry eye disease model, effects of HAPLN1 protein on the relief of dry eye disease in human corneal epithelial cells under the high osmotic pressure conditions were verified. This is related to cell viability of human corneal epithelial cells.
In this experiments, a cell counting kit-8 (CCK-8), which allows a sensitive colorimetric assay used to measure cell viability and cytotoxicity, was used. That is, addition of WST-8, which is a highly water-soluble tetrazolium salt, to cells […] to produce an orange-colored formazan dye in the cells. Because the amount of the dye is related to the number of viable cells, a larger amount of the dye indicates more viable cells. […]

The subject of test [5] is NFκB in human corneal epithelial cells. The test is described as follows: Western blot of NFκB activity under high osmotic pressure. In kind it is cell-based. The following applies: HCEC, 450 mOsM. How it is done:
as §1

“Also recorded” adds a separate entry of the source.

B1: hyaluronan and proteoglycan link protein 1 (HAPLN1) (protein, listed as Homo sapiens)
chain: MKSLLLLVLISICWADHLSDNYTLDHDRAIHIQAENGPHLLVEAEQAKVFSHRGGNVTLPCKFYRDPTAFGSGIHKIRIKWTKLTSDYLKEVDVFVSMGYHKKTYGGYQGRVFLKGGSDSDASLVITDLTLEDYGRYKCEVIEGLEDDTVVVALDLQGVVFPYFPRLGRYNLNFHEAQQACLDQDAVIASFDQLYDAWRGGLDWCNAGWLSDGSVQYPITKPREPCGGQNTVPGVRNYGFWDKDKSRYDVFCFTSNFNGRFYYLIHPTKLTYDEAVQACLNDGAQIAKVGQIFAAWKILGYDRCDAGWLADGSVRYPISRPRRRCSPTEAAVRFVGFPDKKHKLYGVYCFRAYN
On to B1, for which the “reduction of CFS level compared with Restasis” value in the test with rabbit dry eye model (after 10 days) is on record as “more than by Restasis”. In addition, the CFS level result in the test on rabbit dry eye model (eye drop 0.5, 5, 50 μg/ml b.i.d., regardless of the concentration) is listed as “consistently decreased”. For the same molecule, the “expression of IL-1β in lacrimal gland” value in the test on IL-1β in lacrimal glands is on record as “decreased to a level similar to that of Sham control”. Also, in test [1], the “expression level of MUC16 (FIG. 5C)” value is recorded as “significantly increased”. Also, the “number of goblet cells compared with normal Sham control” value in test [2] is “equivalent to that of the normal Sham control”. In test [2] (regardless of the concentration), the “number of goblet cells compared to the dry eye model” value is “significantly increased”. Besides, in test [3], the “expression levels of the inflammatory factor CCL20 (ELISA)” value was “relatively lower than those of the HAPLN1 protein-untreated groups”. In addition, the “cell viability, CCK-8 absorbances (450 nm)” value in test [4] (5 to 100 ng/ml, incubated 24 hours or 48 hours, compared with normal cell group (314 mOsM)) was “not less than or similar to that of a normal cell group; also recorded: increased”. In addition, in test [4] (regardless of concentration, vs 0.1 to 0.5 μM Cyclosporin A), the “cell viability (CCK-8) compared with control drug Cyclosporin A” value is “higher than 0.1 to 0.5 μM of Cyclosporin A”. Moreover, the “phosphorylation of NFκB” value in test [5] is given as “reduced”.
